Measured values as given in a protein production outcome set (Wang et al. 2014).

Experiment: label from the status in PepcDB records
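Also: failed if final PepcDB status was selected cloned or expressed and not failed if soluble or beyond.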

Sequence	protein production
MEIFEDVVRCGGFRAAALGRGVSSSAISQSISVLEEALGIRLLNRTTRSVAPTEAGEQLLERLRPALYEIRTAVDDLNQLRERPSGTVRINAPGPAADHVLCPLTFEFMKIYPDVNVEIVSDAAIIDIVEQGFDAGVRFGNQLAQDMIAMPLGPALRYAIVASPDYLRKRGRPHSPRDLLQHDCIRRRFPGGTMVTWKFARDGDEVEITPKGRLTLSSAHQELQAALAGSGIAHLFEDYVRDDVEQGRLVELLCDWKQKLPSWYLYYPSRRHTSAAMRAFLEYIRNQRQHPDRR	failed
GDGNITTENIPVSEYDCLELEGGGMVVNYTQSDAPEGLEIKTDRNIFEKYEFNVENHKLKIRPKKEFRKHTNFRPTEFMVTANSRNLKKLAAAGSTHVNINSPLQAEEFEAGLAGSGIIQFHDTASFTNLKIEIAGSGDFVGHKVYCEELNGDMAGSNTIVLGGTVGIAEFSIAGSGTVRAFDCTMDELECKIAGSGDIEAFVVNKIKAEIAGSGSVKYKGDPQDIQKKVMGSGKIEKVE	not failed
MTLVDDRLLESKMTKVEQARAWSPRVISKFETLIKSADDHSLYRVNPLAFARDRAIAEAEAIDLFLHAARCGLFDMSWDVLCPQSGMVLDSFGALRTLKTHYVCGLCDVSGDTDLDDFIEVTFSVSPKLRRLPYHDPETLPVEDFHWKLHFGHDGRLPGQDVRFLDVLRGFVRGMTFLPPGTTTVLRADLGPGALSGVNVQTQAAFAVPISGDRGLAPTLLKIDYDGKRFLPAMPAVPPGPIVIEVANRGPVRGSLLVINWPPELVALTTKPTLDFDPYVSGGALLARQTFRQLFRSERVDEKEGLGIRQITFLFTDLKGSTAMYERLGDLNAYALVREHFALVNAAVQQHSGAVVKTIGDAVMAVFSQPSDAISAALHVFEEIDRFNGDHDGPGIILKIGAHCGPSIAVTLNDNLDYFGQTVNVAARVQSLAEAGQICISEALYSAPGVREMLAGHRVVAFDAPLRGVQGDATVYRIMRE	failed
MQHYFYYIHSKHITPCFIFVDDVLSCLQRLNYQHLPAVSWSCFVSDQIIARVSQSLAKEQSLESLVRQLLEMLEMVTDMESTYLTKVDVEARLQHIMFARNSQKMHIPENFTVSWDYSLCKRAIDENCFFSDEVPDRWGDCIAARNLGITTFLSTPIHLPDGSFYGTLCAASSEKRQWSERAEQVLQLFAGLIAQYIQKEALVEQLREANAALIAQSYTDSLTGLPNRRAIFENLTTLFSLARHLNHKIMIAFIDLDNFKLINDRFGHNSGDLFLIQVGERLNTLQQNGEVIGRLGGDEFLVVSLNNENADISSLRERIQQQIRGEYHLGDVDLYYPGASLGIVEVDPETTDADSALHAADIAMYQEKKHKQKTPFVTHSALHS	failed
MRVCAVVVTYNRKDLLVECLEALRRQTGPLDAIYIIDNASTDGTPELLRSRGYRDGAVIENPLDGSEIVIRYVRLPVNTGGAGGFHEGVKRAFHDGYDWIWLMDDDAEPLPDSLQGLLRYADDDTAALANLKVSPDGRPQYIHRGFFDFDSFGTFVRPVTEDDLREETLEIDHASFVGILINSDSVREIGFPRKEFFLHYDDVEYCLRLRSTGKIILVPGSLILHKEAAERGNLTKGLFGREIPVVPYDKLWLRYYGVRNSIWLRRKEMGRARLFIFMVRAILLSVAAQIITGIREKPFRRVRFILSAYSDGLRGRFDNEKPRRILYG	failed
AIAPSDLAKKKAAKKKEAAKARGRTRKPEDGVNGDAEKPEIQENGAAEVNGVDSLAKELDEFELKKTEARAVTGVLASHPNSTDVHISSLSLTFHGQELLSDTSLELNSGRRYGLIGLNGTGKSMLLSAISHREVPIPEHIDIYHLTREMAPSEKTALQCVMEVDEERIKLEKEAERLAHEDSECEKLMELYERLEELDADKASMRASRILHGLGFTTSMQQKKLKDFSGGWRMRVALARALFLKPFMLLLDEPTNHLDLDACVWLEEELSQFKRILVLISHSQDFLNGVCTNIIHLHQRKLKYYTGNYDQYVKTREELEENQMKRFNWEQDQIAHMKNYIARFGHGSAKLARQAQSKEKTLQKMVASGLTERVVNDKTLSFYFPPCGKIPPPVIMVQNVSFRYSENTPYIYKNLEFGIDLDTRVALVGPNGAGKSTLLKLLTGELLPSDGMIRKHSHVKIGRYHQHLTEQLELDLSPLEYMMKCYPEIKEKEEMKKIIGRYGLTGKQQVSPIRNLSDGQKCRVCFAWLAWQNPHMLFLDEPTNHLDIETIDALAEAINDFEGGMMLVSHDFRLIQQVAQEIWVCEKQTITKWSRDILAYKEHLKSKIDKQMHDL	failed
MSTDSIVKASNWRLVEVGRVVLIKKGQSAGKLAAIVEIIDQKKVLIDGPKAGVPRQAINLGQVVLTPLTFALPRGARTATVSKKWAAAAVCEKWAASSWAKKIAQRERRAALTDFERFQVMVLRKQKRYTVKKALAKA	failed
MLISLIVPIYNVEGFLPRCLDSIIKQEYQNLEIVLVNDGSTDQSGLICDQYAEKDERFIVFHKENGGVSSARNVGLNKANGNYIGFVDPDDWIEPNMINKLYELIIQHKADIAMCGYVKEDINGLLISRPVELSTKILNKEDTLNSILNPNDFRGFLCNKLFSVDLFRKKNLYLDEDIHFCEDLLFCCQAILESKQIVYDSTPYYHYIIHNNNASKSNFSFKKLTALNSLDNIINLLNDQKGIELEQYKNYYMHLNISLLMNGIHEDKIRRQDKERLKKNLYKFKINDLTSKFVKFSCVLARLNLNLYYFIWKNAKPSNLEHHHHHH	failed
MFTLFAIQFFTTAAAVAFLLTELMGGFMLLFDWKNSGQKIMTYVAPIWEVTGTFLAMFVVETDATFAGILIPAAFAFAALLLIFLILFIVRNVAIILGEFAGSRKIFTDRQLYYIYVIATLLISVVFLAFSSAIISGNGVKIDIAGNPVDSLLSVSNAEISFNLASWLAGPGDILFVVSAALIAFGLSPVFYDVDRFSTYGVISSVIGFILGIVSFVQMGVHISPIIIIPAIIIIGVPILYRIGLAKKILTNKALFIVLLIVSIYSLYFTVYPSAMNGKLPLSQIITTGPMVIGTILTTVVGFTLLAFMLSLYVYVNYRSSRNQMTTLPK	failed
MARTIENMAKPASDMPPYDKAAALRGLAGARRVALLMAPRLGDTLLMMNMARNLAAHGREVSIFGDYIHGLRDWFPGLDIRPSLSEEQAGQVLPGYDCAAQMHVGWPYALHAHQPNYFYYDAHVAITGRGFVKLFQIRDFCREQLGLAQAGADNGLRPPPQVQPHRSHPRRVALHPTSTGAQRCWAPRHFKELGLRLLHEGYEPNYIVAPHERAEWSWVLDHGLHLPQFPSLSEVAGFIHASGWFIGNESGIGHLASNVGVPTLSLTGRPTRTRAWRPAWSTSRIVYPALIPGGRWRDRLWREWLSPRRVMSAFHKLQADDRRQPVGVPWGKI	failed
MSLIYTITLNPAIDRLLFIRGELEKRKTNRVIKTEFDCGGKGLHVSGVLSKFGIKNEALGIAGSDNLDKLYAILKEKHINHDFLVEAGTSTRECFVVLSDDTNGSTMIPEAGFTVSQTNKDNLLKQIAKKVKKEDMVVIAGSPPPHYTLSDFKELLRTVKATGAFLGCDNSGEYLNLAVEMGVDFIKPNEDEVIAILDEKTNSLEENIRTLAEKIPYLVVSLGAKGSICAHNGKLYQVIPPKVQERNDTGAGDVFVGAFIAGLAMNMPITETLKVATGCSASKVMQQDSSSFDLEAAGKLKNQVSIIQLEEREGHHHHHH	not failed
MSQDLIRAAFEKRLSDWAKARTPALPVAWQNTKFTPPAAGVYLRAYVMPAATISRDAAGDHRQYRGVFQVNVVMPIGDGSRSAEQVAAELDALFPVNLVMQSGGLAVRVRTPISNGQPTTGDADHTVPISLGYDVQFYPE	not failed
MLIDPIELYRYPEKWIKDRDAEKKVRSGLYILTEDGYLRRGITTGTTASAAAVAAIASLKEKVEKVKVSTPAGVDVEVEVEAEKGFARVRKFSGDHEFDVTNGIIFEAEVCETSGIFFGRGVGVKAGEKAVSRSAKLQILENFIKASREFNFSGGVRISVPDGEEVAKKTGNEKVGIKGGISILGTTGFVEPWCKKLVETKLKIAMQYHRIAITTGRKAWLYARKKFPEYQPFVFGVHIDEALKHPGEKIIVGFPGLLKIWAGSRDRIEERAREEGVRVVVIEDDMDSWVWDVQGTDH	not failed
MAKKENQQPDNHVGEVVSRSEQFIEKNMTKIGLVILGVFIIVAGIFAYKRFVSEPKAREAAAKVYLAEDKFIQELDSAALNGNGANEMGLLTVIKKYSGSDASNLAKAYAGICYYNLGEYQKAIDHLKGFSSKENMVAPSITRLIGDCYVQLKKYEEAVGYFEKAAAAASNDAITPGCLIKAGRVYEELKQYDKALAAYKQVKEKYYTSMEANTVEADIIRVKTKGAK	failed
EDAWMGTHPKYLEMMELDIGDATQVYVAFLVYLDLMESKSWHEVNCVGLPELQLICLVGTEIEGEGLQTVVPTPITASLSHNRIREILKASRKLQGDPDLPMSFTLAIVESDSTIVYYKLTD	not failed
MLNDILTGYGIFILEILTILLLILAVVGLIISYRQHNKSKVGELEIKDLSEEFNEQVRLLRDFNLSEEEQKQRTKAEKKAEKQNAKKRKEKLKKGETLEDEKKACVYVLDFCGDISASETTALREEISAILNVAKSEDEVLLRLESPGGIVHNYGFAASQLSRLKQKGIKLTVAVDKVAASGGYMMACVADKIVSAPFAVIGSIGVVAQIPNVHRLLKKHDVDVDVMTAGEFKRTVTVLGENTEKGKQKFQQELEETHKLFKQFVSQNRPCLDIDKIATGEHWFGQQAIALQLVDEISTSDDLILEKMKEKQVLNVKYRLKKSLIKKFGRQAEESAINIIHRYSTKQSRDFMYLEHHHHHH	failed
MKTKIIGVLGLGIFGQTLAQELSNFEQDVIAIDSNPENVQAVAEVVTKAAIGDITDLAFLKHIGISDCDTVIIATGNSLESSVLAVMHCKKLGVPQVIAKARNLVYEEVLYEIGADLVISPERESGQNVAANLMRNKITDVFQIESDISVIEFKIPKSWVGKTVEQLNIRHKFDLNLIGIRKAKNKPVDTEVPINSPLEEGIILVAIANSDAFQRYDYLGYFNLEHHHHHH	not failed
MTTPFVLAVPSKGRLQENAEAFFARAGLTLSKLGGARDYRGTIAGLDNVEIAYLSASEIAAQLARGTVHLGITGEDLIRESIADADKKVALIEGLGFGGANVVVAVPQAWIDVRTMADLDDVTTGFRAQHNRRMRVATKYINLTRNFFAAHGVVDYRIVESAGATEGAPAVGTAEMIVDITSSGATLVANGLKVLDDGVILRSQANLVASRAADWSADALETARVILDRIAARARANKYKEVRTRFAGCDASLLTEAHNRFGVVSPFGGPTSSGMITLHCPPAQLYALGSFLRDHGADTVSIASLDYVLDRENPLFAKLESFLRQ	failed
MDPAGASVASAIGGEGEKFAVGNIYSVKVITGDEFRGIGTKPRPGHLKNTRMVNASFITGLSYLGKTEDPLDSDNFSVDLNGLRAKEALAIRQAEADAERMGVGVTAEAQSIFDALSKTLPVQWENSDILVMKEVRVRSPYLSDCVFGGTDAANNRVKKVLELERRRLQLFGT	failed
MQSVEDKTFCLQTLSANPLAASATGLLPLAEVVIRGIDLPYAKLLVKSADRAIEKIPALKEQFKECQDSFLRIVMSLKSAASELKVSPDTANYDAMICFDETKRVKEVIGKNEDVTSKSLIEMTLRMEKLIFLALGATEVVGG	failed
MKTTIQTITLILGLFISSLAIASPEFPTQEPMGGKTFGHSVKHVGNGIYVFRWWVYRNFFVVTDDGVIVSDPLNPKAAKLLQSEIRKITDKPVKYVVYSHNHHDHISGGNIFKAEGAKFIGHKNLLKQLKDHPSPVLPIPDIVFEDTYTLTLGNRTLELSYFGPNHGDSLVVMRFPKEKILFVVDIVTPRRVAFRGMPDFWPDEWVRSLKEIELMDVDYVISAHGPENQPAIDPASVIKEQRVYIEDLMAAVKLKMDEGVHSPDALRKQVKLPKYEHWQYYEQWLPMNIERIWAYYHMGW	failed
MSEFIMNNLEQTARRWLEERGVTVEKIAELVYYLQSKYHPDLTMEECIENVNRVISKREVQNAILTGIQLDKLAEDGRLDEPLQSIIRRDEGLYGVDEILALSIVNVYGSIGFTNYGYIDKQKPGILQYLNDKSTGKCNTFLDDIVGAIAAAASSRLAHRAANAE	not failed
